Experimental data: patent EP2488198B1 (Rutgers, the State University of New Jersey, dated 2016)

Target: T1, leukocyte function antigen-1 (LFA-1), composed of CD11a and CD18, on the surface of white blood cells (human, UniProt P20701 26-1170; P05107 23-769)
T1 construct: whole, on cells; also called CD11a/CD18; wild type form of the receptor
Test: flow cytometry, THP-1 cells mixed with LtxA-FITC for 30 min at 0 C

T1 sequence (P20701 26-1170, chain 1 of 2): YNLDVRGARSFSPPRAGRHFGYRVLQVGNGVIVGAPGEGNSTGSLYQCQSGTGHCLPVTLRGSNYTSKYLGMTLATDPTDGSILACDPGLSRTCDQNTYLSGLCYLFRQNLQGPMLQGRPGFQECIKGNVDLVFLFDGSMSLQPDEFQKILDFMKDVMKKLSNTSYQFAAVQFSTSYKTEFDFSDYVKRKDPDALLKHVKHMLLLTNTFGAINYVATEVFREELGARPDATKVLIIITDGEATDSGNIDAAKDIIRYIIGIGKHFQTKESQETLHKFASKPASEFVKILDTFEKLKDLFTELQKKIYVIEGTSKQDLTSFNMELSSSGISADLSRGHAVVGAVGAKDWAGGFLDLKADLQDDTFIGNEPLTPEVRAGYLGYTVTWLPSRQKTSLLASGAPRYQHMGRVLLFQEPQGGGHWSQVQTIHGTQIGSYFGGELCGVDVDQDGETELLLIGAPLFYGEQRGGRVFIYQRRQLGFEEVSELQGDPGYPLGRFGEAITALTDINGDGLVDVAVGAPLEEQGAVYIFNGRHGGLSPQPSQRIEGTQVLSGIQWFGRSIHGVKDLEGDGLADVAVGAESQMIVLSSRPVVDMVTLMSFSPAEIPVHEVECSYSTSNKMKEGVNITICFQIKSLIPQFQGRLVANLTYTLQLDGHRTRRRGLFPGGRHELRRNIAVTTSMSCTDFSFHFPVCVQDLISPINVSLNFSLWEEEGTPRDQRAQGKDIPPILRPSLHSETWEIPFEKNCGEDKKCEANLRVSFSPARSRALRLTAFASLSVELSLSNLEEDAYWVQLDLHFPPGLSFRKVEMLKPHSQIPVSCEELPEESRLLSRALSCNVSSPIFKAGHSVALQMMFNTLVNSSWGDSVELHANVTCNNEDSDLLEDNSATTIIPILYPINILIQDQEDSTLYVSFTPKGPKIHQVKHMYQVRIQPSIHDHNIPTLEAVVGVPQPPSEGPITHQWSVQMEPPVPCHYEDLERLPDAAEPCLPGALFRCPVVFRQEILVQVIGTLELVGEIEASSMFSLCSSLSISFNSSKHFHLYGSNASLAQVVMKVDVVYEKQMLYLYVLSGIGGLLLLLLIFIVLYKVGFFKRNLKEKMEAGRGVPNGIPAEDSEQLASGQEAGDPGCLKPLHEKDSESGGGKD
T1 sequence (P05107 23-769, chain 2 of 2): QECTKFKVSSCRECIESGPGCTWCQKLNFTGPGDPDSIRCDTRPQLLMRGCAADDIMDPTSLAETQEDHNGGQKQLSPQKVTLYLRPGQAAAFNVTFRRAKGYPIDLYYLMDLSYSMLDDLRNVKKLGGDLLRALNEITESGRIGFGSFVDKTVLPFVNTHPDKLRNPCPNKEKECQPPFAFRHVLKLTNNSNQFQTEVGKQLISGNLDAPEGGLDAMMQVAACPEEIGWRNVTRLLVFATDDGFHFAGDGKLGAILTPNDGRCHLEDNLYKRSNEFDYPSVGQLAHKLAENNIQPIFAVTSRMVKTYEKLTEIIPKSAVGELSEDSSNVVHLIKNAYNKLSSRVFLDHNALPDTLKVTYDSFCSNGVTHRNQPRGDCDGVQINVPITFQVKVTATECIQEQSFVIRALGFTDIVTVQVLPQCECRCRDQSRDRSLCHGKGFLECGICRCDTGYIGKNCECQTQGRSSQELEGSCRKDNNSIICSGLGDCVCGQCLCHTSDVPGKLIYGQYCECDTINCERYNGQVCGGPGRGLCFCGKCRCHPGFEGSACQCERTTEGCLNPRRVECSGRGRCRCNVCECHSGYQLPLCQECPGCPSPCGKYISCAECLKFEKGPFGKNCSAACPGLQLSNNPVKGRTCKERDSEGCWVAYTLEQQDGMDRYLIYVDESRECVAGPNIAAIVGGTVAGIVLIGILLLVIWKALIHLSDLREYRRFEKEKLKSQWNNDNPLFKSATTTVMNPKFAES

B1: LtxA covalently labeled with fluorescein isothiocyanate (LtxA-FITC) (other)
chain: MATTSLLNTKQQAAQFANSVADRAKENIDAAKEQLQKALDKLGKTGKKLTLYIKNYKKGNGLTALIKAAQKLGIEVYHEGKDGPALTNGILNTGKKLLGLTERGLTLFAPELDKWIQGNKHLSNSVGSTGNLTKAIDKVQSVLGTLQAFLNTAFSGMDLDALIKARQNGKNVTDVQLAKASLNLINELIGTISSITNNVDTFSKQLNKLGEALGQVKHFGSFGDKLKNLPKLGNLGKGLGALSGVLSAISAALLLANKDADTATKAAAAAELTNKVLGNIGKAITQYLIAQRAAAGLSTTGPVAGLIASVVSLAISPLSFLGIAKQFDRARMLEEYSKRFKKFGYNGDSLLGQFYKNTGIADAAITTINTVLSAIAAGVGAASAGSLVGAPIGLLVSAITSLISGILDASKQAVFEHIANQLADKIKAWENKYGKNYFENGYDARHSAFLEDSLKLFNELREKYKTENILSITQQGWDQRIGELAGITRNGDRIQSGKAYVDYLKKGEELAKHSDKFTKQILDPIKGNIDLSGIKGSTTLTFLNPLLTAGKEERKTRQSGKYEFITELKVKGRTDWKVKGVPNSNGVYDFSNLIQHAVTRDNKVLEARLIANLGAKDDYVFVGSGSTIVNAGDGYDVVDYSKGRTGALTIDGRNATKAGQYKVERDLSGTQVLQETVSKQETKRGKVTDLLEYRNYKLDYYYTNKGFKAHDELNSVEEIIGSTLRDKFYGSKFNDVFHGHDGDDLIYGYDGDDRLYGDNGNDEIHGGQGNDKLYGGAGNDRLFGEYGNNYLDGGEGDDHLEGGNGSDILRGGSGNDKLFGNQGDDLLDGGEGDDQLAGGEGNDIYVYRKEYGHHTITEHSGDKDKLSLANINLKDVSFERNGNDLLLKTNNRTAVTFKGWFSKPNSSAGLDEYQRKLLEYAPEKDRARLKRQFELQRGKVDKSLNNKVEEIIGKDGERITSQDIDNLFDKSGNKKTISPQELAGLIKNKGKSSSLMSSSRSSSMLTQKSGLSNDISRIISATSGFGSSGKALSASPLQTNNNFNSYANSLATTAA
modifications: covalently labeled with fluorescein isothiocyanate (FITC); sites not stated
notes: also called leukotoxin-FITC
**Q.** Does B1 bind?
**A.** Result: binds
